Measurements: PMC8849298, “Structure of ATP synthase from ESKAPE pathogen Acinetobacter baumannii” (Science Advances, 2022)

B2: A. baumannii F1Fo-ATP synthase β-subunit, StrepII-tagged (natural protein, Acinetobacter baumannii, UniProt A3M144 1-464, looked up)
chain: MSSGRIIQIIGAVIDVEFERTSVPKIYDALQVDGTETTLEVQQQLGDGVVRTIAMGSTEGLKRGLTVTSTNAPISVPVGTATLGRIMDVLGRPIDEAGPVATEERLPIHRQAPSYAEQAASTDLLETGIKVIDLLCPFAKGGKVGLFGGAGVGKTVNMMELINNIAKAHSGLSVFAGVGERTREGNDFYHEMKDSNVLDKVAMVYGQMNEPPGNRLRVALTGLTMAEYFRDEKDENGKGRDVLLFVDNIYRYTLAGTEVSALLGRMPSAVGYQPTLAEEMGVLQERITSTKSGSITSIQAVYVPADDLTDPSPATTFAHLDATVVLSRDIASSGIYPAIDPLDSTSRQLDPLVVGQEHYEIARAVQNVLQRYKELKDIIAILGMDELAEEDKLVVYRARKIQRFFSQPFHVAEVFTGAPGKLVPLKETIRGFKGLLAGEYDHIPEQAFYMVGGIDEVIAKAEKL
notes: ATP synthase subunit beta, Acinetobacter baumannii; gene at 3815454-3814060 of GenBank CP053098.1, amplified from genomic DNA with a StrepII tag coded at the 5' end; Three copies stand in the complex; also called βDP*; βTP; not shown: StrepII, N-terminal, kept

What was measured:
Assay in all cases: cryo-EM structure; single-particle cryo-EM of the whole F1Fo-ATP synthase purified from A. baumannii membranes via the StrepII tag on β and reconstituted into peptidiscs; three rotational states; buffer A (50 mM Hepes pH 6.8, 150 mM KCl, 5 mM MgCl2) without detergent
[1] = target: B2; conditions: both partners purified
[2] = target: T1, A. baumannii F1Fo-ATP synthase α-subunit (Acinetobacter baumannii ATCC 17978 …, UniProt A3M142 1-514); conditions: both partners purified
T1 construct: ATP synthase subunit alpha, Acinetobacter baumannii ATCC 17978; Three copies stand in the complex (α3β3γδεab2c10); also called αDP; αE; source: endogenous, A. baumannii ATCC 17978 membranes

[3] = target: T2, A. baumannii F1Fo-ATP synthase γ-subunit (Acinetobacter baumannii ATCC 17978 …, UniProt A3M143 1-289); conditions: both partners purified
T2 construct: ATP synthase subunit gamma, Acinetobacter baumannii ATCC 17978; source: endogenous, A. baumannii ATCC 17978 membranes
T2 sequence (looked up): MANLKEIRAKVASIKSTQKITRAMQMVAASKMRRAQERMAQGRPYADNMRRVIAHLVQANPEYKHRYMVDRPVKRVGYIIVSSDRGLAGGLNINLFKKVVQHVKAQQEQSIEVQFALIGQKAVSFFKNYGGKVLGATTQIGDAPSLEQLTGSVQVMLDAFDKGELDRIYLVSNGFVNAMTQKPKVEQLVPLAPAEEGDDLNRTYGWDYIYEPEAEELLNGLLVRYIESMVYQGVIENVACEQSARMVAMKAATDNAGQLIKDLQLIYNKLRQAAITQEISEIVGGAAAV

[4] = target: T3, A. baumannii F1Fo-ATP synthase a-subunit (Acinetobacter baumannii ATCC 17978 …, UniProt A3M137 1-291); conditions: both partners purified
T3 construct: ATP synthase subunit a, Acinetobacter baumannii ATCC 17978; S5A; also called proton-conducting a-subunit; source: endogenous, A. baumannii ATCC 17978 membranes

[5] = target: the molecule itself

T1 sequence (A3M142 whole entry): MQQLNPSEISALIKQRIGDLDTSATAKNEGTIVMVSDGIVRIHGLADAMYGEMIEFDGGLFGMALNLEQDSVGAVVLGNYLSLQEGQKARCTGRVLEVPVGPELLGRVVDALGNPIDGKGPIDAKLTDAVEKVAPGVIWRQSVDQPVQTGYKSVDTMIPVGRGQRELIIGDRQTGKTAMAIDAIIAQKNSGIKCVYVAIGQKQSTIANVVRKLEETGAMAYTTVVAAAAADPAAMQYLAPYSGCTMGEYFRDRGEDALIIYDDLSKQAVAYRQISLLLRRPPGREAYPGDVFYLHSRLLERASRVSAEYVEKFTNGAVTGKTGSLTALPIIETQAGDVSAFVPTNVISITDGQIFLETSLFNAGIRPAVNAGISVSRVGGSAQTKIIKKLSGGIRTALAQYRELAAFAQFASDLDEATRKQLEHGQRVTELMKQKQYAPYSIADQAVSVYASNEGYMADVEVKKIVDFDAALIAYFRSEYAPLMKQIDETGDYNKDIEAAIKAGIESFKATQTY
T3 sequence (A3M137 whole entry): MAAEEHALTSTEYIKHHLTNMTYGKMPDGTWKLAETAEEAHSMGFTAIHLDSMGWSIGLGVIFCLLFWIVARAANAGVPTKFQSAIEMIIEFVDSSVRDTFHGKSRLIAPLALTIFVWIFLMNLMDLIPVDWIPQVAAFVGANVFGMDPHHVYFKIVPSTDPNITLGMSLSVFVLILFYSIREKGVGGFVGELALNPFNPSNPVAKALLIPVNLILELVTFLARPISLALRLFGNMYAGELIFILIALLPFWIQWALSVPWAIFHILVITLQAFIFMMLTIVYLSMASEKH

B1: A. baumannii F1Fo-ATP synthase ε-subunit (natural protein, UniProt A3M145 1-139, looked up)
chain: MATMQCDVVSVKESIYSGAVTMLIAKGAGGELGILPGHAPLVTLLQPGPIRVLLENGTEEIVYVSGGVLEVQPHVVTVLADTAIRADNLDEAAILEARKNAEQLLANQKSDLDSAAALAALAETAAQLETIRKIKNRAQ
notes: ATP synthase subunit epsilon, Acinetobacter baumannii ATCC 17978; also called subunit ε; source: endogenous, A. baumannii ATCC 17978 membranes
[1]
  binding result: binds
[2]
  binding result: binds
[3]
  binding result: binds

## B2
[2]
  binding result: binds

B3: A. baumannii F1Fo-ATP synthase c-subunit (c10 ring) (natural protein, UniProt A3M139 1-81, looked up)
chain: MELTLGLVAIASAILIAFGALGTAIGFGLLGGRFLEAVARQPELAPQLQTRMFLIAGLLDAVPMIGVGIGLFFIFANPFVG
notes: ATP synthase subunit c, Acinetobacter baumannii ATCC 17978; also called c-ring; source: endogenous, A. baumannii ATCC 17978 membranes; copies: 10
[4]
  binding result: binds
[5]
  stoichiometry N: 10
